Data published in paper PMC9165289, “Theranostic PSMA ligands with optimized backbones for intraoperative multimodal imaging and photodynamic therapy of prostate cancer” (European Journal of Nuclear Medicine and Molecular Imaging, 2022).
Where two headings read alike, the source gives them in different places.

How the values were obtained:
LS174T-PSMA cells [1] = experiment: in vitro binding and internalization assay; assay type: cell-based, human; conditions: 37 °C, 2 h
Description: The binding and internalization characteristics of the ligands were determined using LS174T-PSMA cells. Cells were cultured to confluency in 6-well plates followed by incubation with 50,000 counts per minute of ^111In-labeled ligand (0.1–0.25 pmol/well) in 1-ml RPMI + 0.5% BSA (37 °C, 2 h). Non-specific binding was determined by coincubation with 2(phosphonomethyl)-pentane-1,5-dioic acid (2-PMPA, 21.57 µM). PSMA-specific binding was defined as total binding minus the non-specific binding. To retrieve the membrane-bound fraction, cells were washed twice with PBS and incubated for 10 min at 0 °C with acid buffer (154-mM NaCl, 0.1 M acetic acid, pH 2.6). After incubation, the membrane-bound fraction was collected. Then, cells were washed and lysed with 0.1 M NaOH, and the cell lysate (intracellular activity) was collected. Intracellular and membrane-bound activity fractions were measured in a gamma-counter (2480 WIZARD^2 Automatic Gamma Counter, PerkinElmer).

LS174T-PSMA cells [2] = experiment: in vitro targeted PDT assay (CellTiter-Glo); assay type: cell-based, human; conditions: 30 nM ligand, irradiated with 100 J/cm^2
Description: LS174T wildtype (LS174T-WT) and LS174T-PSMA cells were cultured to confluency in 48-well plates. Cells were incubated (2 h, 5% CO2, 37 °C) with 30-nM PSMA ligand in binding buffer (RPMI 1640 + 0.5% BSA) in triplicate. After washing with PBS, a 0.5-ml binding buffer was added to each well, and cells were irradiated with a NIR light-emitting diode (690 ± 20 nm). The typical forward voltage was 2.6 V creating a power output of 490 mW using 126 individual LED bulbs to ensure homogenous illumination of the area of interest predefined as 5 × 3 cm. The cells were irradiated at NIR radiant exposures of 100 J/cm^2 ([…]) and subsequently incubated for 1 h at 37 °C. Cells that only received the PSMA ligand, only the NIR light, or neither the ligand nor the light were included as controls. Cytotoxic effects of PDT with PSMA ligands were determined with a CellTiter-Glo™ assay (Promega Benelux) according to the manufacturer’s instructions. The binding buffer was replaced with 100-µl fresh binding buffer and 100-µl CellTiter-Glo® 2.0 Assay. Plates were shaken (2 min) and incubated for 10 min at room temperature. Next, luminescence was measured in a plate reader (Tecan Infinite® 200 PRO) to determine the metabolic activity of the cells.

[3] = ex vivo biodistribution of 111In-labeled ligands; design: species or system BALB/c nude mice; conditions: male, BALB/c nude, mouse, iv, 0.3 nmol, total radioactivity, 2 h p.i.; for tissue uptake at 2 h: 10 MBq/mouse, i.v.
Description: (§1) All animal experiments were approved by the institutional Animal Welfare Committee of the Radboud University Medical Center and were conducted in accordance to the guidelines of the Revised Dutch Act on Animal Experimentation. Animal experiments were performed in 8–10 weeks old male BALB/c nude mice (Janvier). The mice were housed in individually ventilated cages (Blue line IVC, 3–5 mice per cage), under standard non-sterile conditions with cage enrichment present. There was free access to chlorophyll-free animal chow (Sniff Voer) and water. Mice were subcutaneously inoculated with 3.0 × 10^6 LS174T-PSMA cells in the right flank and 1.5 × 10^6 LS174T WT cells in the left flank (diluted in 200-µl RPMI 1640 medium). When xenografts were approximately 0.5 cm^3 (10–14 days after injection), mice were block-randomized into groups based on tumor size. The researchers were not blinded for the experimental groups.
(§2) Mice were intravenously injected with 0.3 nmol PSMA ligand, labeled with 10 MBq ^111In (molar activity 33.3 MBq/nmol) in PBS + 0.5% (w/v) BSA. For the ex vivo biodistribution, five groups (one group for each ligand) of four mice were included. Two hours p.i., all mice were euthanized by CO2/O2-asphyxiation. For two mice of each group (2 mice/ligand), background-subtracted fluorescence images were acquired with the IVIS imaging system (Xenogen VivoVision IVIS Lumina II, PerkinElmer), with a 640-nm excitation filter and a Cy5.5 emission filter and an acquisition time of 10 s. Next, µSPECT/CT imaging was performed in the same two mice per group, with a 1.0-mm diameter pinhole mouse collimator tube (U-SPECT II, MILabs). Mice were scanned for 30 min followed by a CT scan for anatomical reference (spatial resolution 160 μm, 615 μA, 65 kV). MILabs reconstruction software was used to reconstruct the µSPECT/CT scans, via an ordered-subset expectation maximization algorithm, energy windows 154–188 keV and 220–270 keV, 3 iterations, 16 subsets, and voxel size of 0.75 mm. SPECT/CT maximum intensity projections (MIPs) were created using the Inveon Research Workplace software (Siemens Preclinical Solutions, version 4.1). NIR fluorescence images were analyzed using Living Image software (PerkinElmer, version 4.2). After imaging, relevant tissues were dissected, weighed, and measured for radioactivity in a gamma-counter (2480 WIZARD^2 Automatic Gamma Counter, PerkinElmer). In addition, a blocking experiment with PSMA-N064 and PSMA-617 was performed. Full experimental procedures and results can be found in the supplementary data (Page 5, Supplementary Fig. 3).

[4] = system: LS174T-PSMA and LS174T wildtype xenografts; experiment: ex vivo biodistribution of 111In-labeled ligands; design: species or system BALB/c nude mice; conditions: 0.3 nmol, 2 h p.i.
Description: as §1, §2

[5] = LS174T wildtype tumor, n=4, read-out: Biodistribution Tumor- LS174T
[6] = LS174T-PSMA tumor, n=4, read-out: Biodistribution Tumor+ LS174T-PSMA
[7] = adrenals, n=4, read-out: Biodistribution Adrenals
[8] = blood, n=4, read-out: Biodistribution Blood
[9] = bone marrow, n=4, read-out: Biodistribution Bone marrow
[10] = bone, n=4, read-out: Biodistribution Bone
[11] = duodenum, n=4, read-out: Biodistribution Duodenum
[12] = heart, n=4, read-out: Biodistribution Heart
[13] = kidney, n=4, read-out: Biodistribution Kidney
[14] = liver, n=4, read-out: Biodistribution Liver
[15] = lung, n=4, read-out: Biodistribution Lung
[16] = muscle, n=4, read-out: Biodistribution Muscle
[17] = pancreas, n=4, read-out: Biodistribution Pancreas
[18] = prostate, n=4, read-out: Biodistribution Prostate
[19] = salivary glands, n=4, read-out: Biodistribution Salivary glands
[20] = spleen, n=4, read-out: Biodistribution Spleen
[21] = stomach, n=4, read-out: Biodistribution Stomach
[22] = tumor (LS174T-PSMA xenograft) / blood, read-out: Tumor/Blood ratio
[23] = tumor (LS174T-PSMA xenograft) / kidney, read-out: Tumor/Kidney ratio
[24] = tumor (LS174T-PSMA xenograft) / liver, read-out: Tumor/Liver ratio
[25] = tumor (LS174T-PSMA xenograft) / spleen, read-out: Tumor/Spleen ratio

SMILES	tissue uptake at 2 h [3, 5] [%ID/g]	tissue uptake at 2 h [3, 6] [%ID/g]	tissue uptake at 2 h [3, 7] [%ID/g]	tissue uptake at 2 h [3, 8] [%ID/g]	tissue uptake at 2 h [3, 9] [%ID/g]	tissue uptake at 2 h [3, 10] [%ID/g]	tissue uptake at 2 h [3, 11] [%ID/g]	tissue uptake at 2 h [3, 12] [%ID/g]	tissue uptake at 2 h [3, 13] [%ID/g]	tissue uptake at 2 h [3, 14] [%ID/g]	tissue uptake at 2 h [3, 15] [%ID/g]	tissue uptake at 2 h [3, 16] [%ID/g]	tissue uptake at 2 h [3, 17] [%ID/g]	tissue uptake at 2 h [3, 18] [%ID/g]	tissue uptake at 2 h [3, 19] [%ID/g]	tissue uptake at 2 h [3, 20] [%ID/g]	tissue uptake at 2 h [3, 21] [%ID/g]	tissue to tissue ratio at 2 h [3, 22]	tissue to tissue ratio at 2 h [3, 23]	tissue to tissue ratio at 2 h [3, 24]	also measured
C[Si](C)(CCC[N+](CCCS(=O)(=O)[O-])(CCCS(=O)(=O)O)CCCS(=O)(=O)O)O[Si]1(O[Si](C)(C)CCC[N+](CCCS(=O)(=O)[O-])(CCCS(=O)(=O)O)CCCS(=O)(=O)O)n2c3c4ccccc4c2N=C2N=C(N=c4c5c(OCCCOC(=O)NCCCCCC(=O)NCCCC[C@H](NC(=O)CN6CCN(CC(=O)O)CCN(CC(=O)O)CCN(CC(=O)O)CC6)C(=O)NCCCC[C@H](NC(=O)[C@H](CCC(=O)O)NC(=O)c6ccccc6)C(=O)NCc6ccc(C(=O)N[C@@H](Cc7ccc8ccccc8c7)C(=O)NCCCC[C@H](NC(=O)N[C@@H](CCC(=O)O)C(=O)O)C(=O)O)cc6)cccc5c(n41)=NC1=NC(=N3)c3ccccc31)c1ccccc12 [PSMA-N01]	1.1 ± 0.2	21 ± 3	1.8 ± 0.1	1.1 ± 0.1	0.3 ± 0.2	0.7 ± 0.1	0.7 ± 0.1	0.6 ± 0.1	90 ± 7	1.5 ± 0.2	2.7 ± 0.9	0.2 ± 0.03	0.4 ± 0.1	0.6 ± 0.1	0.8 ± 0.1	2.2 ± 0.4	0.7 ± 0.1	20 ± 2.5	0.2 ± 0.04	14.6 ± 2.4	internalization percentage (percentage of cell-associated ligand that was internalized) (LS174T-PSMA cells [1]): 73–90%; cell viability (LS174T-PSMA cells [2]): 23% ± 5%; tissue to tissue ratio at 2 h [3, 25]: 9.9 ± 1.4; Biodistribution Kidney ([4]; 10 MBq/mouse, i.v., n=4): 99.2 ± 11.5 %ID/g; Tumor/Negative tumor ratio [4]: 19.7 ± 6.5; Tumor/Prostate ratio [4]: 35.6 ± 4.6; Tumor/Salivary gland ratio [4]: 27.8 ± 4.8
C[Si](C)(CCC[N+](CCCS(=O)(=O)[O-])(CCCS(=O)(=O)O)CCCS(=O)(=O)O)O[Si]1(O[Si](C)(C)CCC[N+](CCCS(=O)(=O)[O-])(CCCS(=O)(=O)O)CCCS(=O)(=O)O)n2c3c4ccccc4c2N=C2N=C(N=c4c5c(OCCCOC(=O)NCCCCCC(=O)NCCCC[C@H](NC(=O)CCC(C(=O)O)N6CCN(CC(=O)O)CCN(CC(=O)O)CCN(CC(=O)O)CC6)C(=O)N[C@@H](Cc6ccccc6)C(=O)N[C@@H](CCC(=O)O)C(=O)N[C@@H](CCC(=O)O)C(=O)NCCCCCC(=O)NCCCC[C@H](NC(=O)N[C@@H](CCC(=O)O)C(=O)O)C(=O)O)cccc5c(n41)=NC1=NC(=N3)c3ccccc31)c1ccccc12 (stereo partly drawn) [PSMA-N064]	0.7 ± 0.3	14 ± 2	1.6 ± 0.4	0.3 ± 0.1	0.2 ± 0.1	0.7 ± 0.1	0.3 ± 0.1	0.4 ± 0.1	74 ± 17	0.9 ± 0.2	0.5 ± 0.1	0.1 ± 0.04	0.3 ± 0.05	0.6 ± 0.1	0.4 ± 0.04	1.4 ± 0.3	0.4 ± 0.1	54 ± 14.7	0.2 ± 0.03	15.6 ± 3.6	tissue to tissue ratio at 2 h [3, 25]: 9.6 ± 0.4; Tumor/Negative tumor ratio [4]: 23.8 ± 9.7; Tumor/Prostate ratio [4]: 21.9 ± 1.7; Tumor/Salivary gland ratio [4]: 33.8 ± 6.6
